Assay results published in the RNAGym collection of RNA variant scans (doi:10.1073/pnas.2313332121).
This sample holds only a part of the variants without activity.

B1: TPR 5TU (parent)
chain: GGAUCUUCUCGAUCUAACAAAAAAGACAAAUCUGCCACAAAGCUUGAGAGCAUCUUCGGAUGCAGAGGCGGCAGCCUUCGGUGGCGCGAUAGCGCCAACGUUCUCAACUAUGACACGCAAAACGCGUGCUCCGUUGAAUGGAGUUUAUCAUG

Variants of: B1
Test: polymerase ribozyme fitness, log enrichment relative to wild type (log ratio); higher = more active; in vitro selection for triplet polymerase activity
How it was run: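 To select mutant libraries of each subunit of a heterodimeric triplet polymerase ribozyme, built by PCR and transcribed, each was annealed with a biotinylated primer, partner subunit and triplets, then incubated frozen at −7 °C. Extended constructs were gel-excised, captured on streptavidin beads and amplified by RT-PCR, in one round carried out in triplicate. Illumina sequencing of input and output libraries kept genotypes with ≥10 input reads and ≥1 read per output. Fitness is the base-2 logarithm of genotype enrichment relative to wild-type enrichment, from inverse-variance-weighted replicate averages.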
In the case of GGAUCUUCUCGAUAUAACAAAAAAGACAAAUCUGCCACAAAGCUUGAGAGCAACUUCGGAUGCAGAGGCGGCAGCCUUCGGUGGCGCGAUAGCGCAACCGUUCUCAACUAUGACACGCAUAACGCGUGCUCCGUUGAAUGAAGUUUAUCAUG [C14A U53A C96A A98C A120U G141A], the “polymerase ribozyme fitness (log ratio)” value is reported as -3.99.
For GGAUCUUCUCGAUAUAACAAAAAAGACAAAUCUGCCACAAAGCUUGAGAGCAUCUUCGGAUGCAGAGGCGGCAGCCUUCGGGGGCGCGAUAGCGCGAACGUUCUCAACUAUGACACGCAAAACGCGUGCUCCGUUGAAUGGAGUUUAUCAUG [C14A U82G C96G], the “polymerase ribozyme fitness (log ratio)” value was -2.31.
With GGAUCUUCUCGAUGUAACAGAAAAGACAAAUCUGCCACAAAGCUUGAGAGCAUCUUCGGAUGCAGAGGCGGCAGACUUCGGUGGCGCGAUAGCGCGAACGUUCUCAACUAUGACACGCAAAACGCGUGCUCCGUUGAAUGCAGUUUAUCAUG [C14G A20G C75A C96G G141C] the “polymerase ribozyme fitness (log ratio)” value was ≤ -4.2.
With GGAUCUUCUCGAUAUAACAAAAAAGACAAAACUGCCACAAAGCUUGAGAGCAUCAUCGGAUGCAGAGGCGGCAGCCUUCGGUGGCGCGAUAACGCCAACGUUCUCAACUAUGACACGCAAAACGUGUGCUCCGUUGAAUGGUGUUUAUCAUG [C14A U31A U55A G92A C125U A142U] the “polymerase ribozyme fitness (log ratio)” value was ≤ -4.2.
With GGAUCUUCUCGAUGUAACUAAAAAGACAAAUCUGCCACAAAGCUUGAGAGCAUCUUCGGAUGCAGAGGCGGCAGCCUUCGGUGGCGGGAUAGCGCCAACGUUCUCAACUAUGACACGCAAAACGCGUGCUCCGUUGAAUGGAGUAUAUCAUG [C14G A19U C87G U145A] the “polymerase ribozyme fitness (log ratio)” value was ≤ -4.2.
In the case of GGAUCUUCUCGAUGUAACUAAAAAGACAAAUCUUCCACAAAGCUUGAGAGCAUCUUCGGAUGCAGAGGCGGCAGCCUUCGGUGGCGGGAUAGCGCCAACAUUCUCAACUAUGACACGCAAAACGCGUGCUCCGUUGAAUGGCGUUUAUCAUG [C14G A19U G34U C87G G100A A142C], the “polymerase ribozyme fitness (log ratio)” value is reported as ≤ -4.2.
For GGAUCUUCUCGAUAUAACAAAAAAGACAAAUCUGCCACAAAGCUUGAGAGCAUCUUCGGAUGCAGAGGCGGCAGCCUUCGGUGGCCCGAUAGCGCCAACGUUCUCAACUAUGACACGCAAAACGCGUGCUCCGUUGAAUGGAGUUUAUCAUG [C14A G86C], the “polymerase ribozyme fitness (log ratio)” value was -3.85.
With GGAUCUUCUCGAUAUAACAAAAAAGACAAAUCUGCCACAAAGCAUGAGAGCAUCUUCGGAUGCAGAGGCGGCAGCCUUCGAUGGAGCGAUAGCGCCAACGUGCUCAACUAUGACACGCAAAACGCGUGCUCCGUUGAAUGGAGUUUAUCAUG [C14A U44A G81A C85A U102G] the “polymerase ribozyme fitness (log ratio)” value was ≤ -4.2.
For GGAUCUUCUCGAUGUAUCAAAAAAGACAAAUCUGCCUCAAAGCUUGAGAGCGUCUUUGGAUGCAGAGGCGGCAGCCUUCGGUGGCGCGAUUGCGCCAACGUUCUCAACUAUGACACGCAAAACGCGAGCUCCGAUGAAUGGAGUUUAUCUUG [C14G A17U A37U A52G C57U A91U U127A U134A A150U], the “polymerase ribozyme fitness (log ratio)” value was ≤ -4.2.
In the case of GGAUCUUCUCGAUAUAACAAAAAAGACAAAUCUGCCACAAAGCGUGAGAGCAUCUUCGGAUGCAGAGGCGGCAGCCUUCGGUGGCGCGAUAGCGCCAACGUUCUCAACUAUGACACGCAAAACGCGUGCUCCGUUGAAUGGAGUUUAUCAUG [C14A U44G], the “polymerase ribozyme fitness (log ratio)” value is reported as -4.1.
For GGAUCUUCUCGAUAUAACAAAAAAGACAAAUCUGCCACAAAGCUUGAGAGCAUCUUCGGAUGCAGAGGCGGCAGCCUUCGGUAGCGCGAUAGGGCCAACGUUCUCAGCUAUGACACGCAAAACGCGUGCUCCGUUGAAUGGAGUUUAUCAUG [C14A G83A C93G A107G], the “polymerase ribozyme fitness (log ratio)” value was ≤ -4.2.
In the case of GGAUCUUCUCGAUGUAACCAAAAAGACAAAUCUGCCACAAAGCUUGAGAGCAUCUUCGGAUGCAGAGGCGGCAGUCUUCGGCGGCGCGAUAGUGCCUACGUUCUGAACUAUGACACGCAAAACGCGUGCUCCGUUGAAUGGAGUUUAUCAUG [C14G A19C C75U U82C C93U A97U C105G], the “polymerase ribozyme fitness (log ratio)” value is reported as ≤ -4.2.
In the case of GGAUCUUCUCGAUGUGACAAACAAGACAAAUCUGCCACAAAGCUUGAGAGCAUCUUCGGUUGCAGAGGCGGCAGCCUUCGGUGGCGUGAUAGUGCCAACGUUCUCAACUAUGACACGCAACACGCGUGCUCCGUUGAAUGGAGUUUAUCAUG [C14G A16G A22C A60U C87U C93U A121C], the “polymerase ribozyme fitness (log ratio)” value is reported as ≤ -4.2.
With GGAUCUUCUCGAUAUAACAAAAAAGACAAAUCUGCCACAAAGCUUGAGAGCAUCUUCGGAUCCAGAGGCGGCAGCAUUCGGUGGCGAGAUAGCGCCAACGUUCUCAACUAUGACACUCAAAACGCGUGCUCCGUUGCAUGGAGUUGAUCAUG [C14A G62C C76A C87A G117U A137C U146G] the “polymerase ribozyme fitness (log ratio)” value was ≤ -4.2.
For GGAUCUUCUCGAUAUAACAAAAAAGACAAAUCUGCCACAAAGCUUGAGAGCAUCUUCGGAUGCAGAGGCGGCAGCCUUCGGUGACGCGAUAGCGCCAACGUUCUCAACUAUGACACGCAAAACGCGUGCUCCGUUGAAUGGAGUUUAUCAUG [C14A G84A], the “polymerase ribozyme fitness (log ratio)” value was -1.24.
In the case of GGAUCUUCUCGAUAUAACAAAAAAGACAAAUCUGCCACAAAGCUUGAGAGCAUCUUCGGAUGCAGAGGCGGCAGCCUUCGGUGGCGCGAUAGCGCCAACGUUCUCAACUAUGACACGCAAAACGCGUGCUCCGUAGAAUGGCGUUUAUCAUG [C14A U135A A142C], the “polymerase ribozyme fitness (log ratio)” value is reported as -3.9.
In the case of GGAUCUUCUCGAUGUAACAUAAAAGACAAAUCUGCCACAAAGCUUGAGAGCAUCUUCGGAUGCAGAGGCGGCAGCAUUCGGUGGCGCGAUAGCGCCAACGUUCUCAACUAUGACACGCAAAACGCGUGCUCCGUUGAAUGGAGUUUAUCAUG [C14G A20U C76A], the “polymerase ribozyme fitness (log ratio)” value is reported as -3.92.
For GGAUCUUCUCGAUGUAACAACAAAGACAAAUCUGCCACAAAGCUUGAGAGCAUAUUCGGAUGCAGAAGCGGCAGCCUUCGGUGGCGCGAUAGCUCCAACGUUCUCAACUAUGACACGCAAAAUGCGUGCUCCGUUGAAUGGAGUUUAUCAUG [C14G A21C C54A G67A G94U C123U], the “polymerase ribozyme fitness (log ratio)” value was ≤ -4.2.
In the case of GGAUCUUCUCGAUGUAGCAAAAAAGACAAAUUUGCCACAAAGCUUGAGAGCAUCUUCGGAUGCAGAGGCGGCAGCCUUCGAUCGCGCGAUAGCGCCAACGUUCUCAACUAUGACACGCAAAACGCGUGCUCCGUUGAAUGGAGUUUAUCAUG [C14G A17G C32U G81A G83C], the “polymerase ribozyme fitness (log ratio)” value is reported as ≤ -4.2.
